The target in test [1] is T1, CD3 (UniProt P07766 23-207).
T1 construct: whole, on cells; on cells it stands in the TCR/CD3 complex; also called CD3 on Jurkat cells
Nature of the test: flow cytometry, serial dilution on Jurkat cells (CD3-expressing), PE anti-human Fc detection, n = 1. Here is the method:
Trivalent, trispecific antibodies were analyzed for their binding to tumor cell lines with different EGFR- and HER3-expression levels (Table 14) by flow cytometry. Adherent cells were washed with PBS and shortly trypsinized at 37° C. Trypsin was quenched with FCS-containing medium and removed by centrifugation (500×g, 5 min.). 1×10⁵ target cells/well (FaDu, LIM1215, SKBR-3, T-47-D, MCF-7 and Jurkat cells) were incubated with a serial dilution of trivalent, trispecific antibodies for 1 h at 4° C. After removing excess of recombinant protein by washing with PBA (PBS, 2% FBS, and 0.02% sodium azide), bound protein was detected using PE-conjugated anti-human Fc mAb (Jackson ImmunoResearch Laboratories Inc). Fluorescence was measured using MACSquant VYB (Miltenyi Biotec) and data were analyzed using FlowJo (Tree Star). Relative median fluorescence intensities (MFI) were calculated as followed: relative MFI=((MFIₛₐₘₚₗₑ-(MFIdetection-MFIcells))/MFIcells).

Test [2] deals with T1, CD3. Kind of test: flow cytometry, serial dilution on Jurkat cells (CD3-expressing), PE anti-human Fc detection. Here is the method:
(§1) Binding of trivalent, bispecific fusion proteins to CEA-expressing (LIM1215) and CD3-expressing (Jurkat) cell lines was analyzed by flow cytometry. 2×10⁵ cells/well were incubated with a serial dilution of trivalent, bispecific antibodies for 1 h at 4° C. followed by detection using a PE-conjugated anti-human Fc antibody (Jackson ImmunoResearch Laboratories Inc). […] Regarding the CEA-expressing cell line LIM1215, the trivalent, bispecific antibodies bound with EC₅₀ values in the nanomolar range (FIG. 16A) (Table 9).

The target of another test is T2, CEA (UniProt P06731 35-685).
T2 construct: whole, on cells
T2 sequence (looked up): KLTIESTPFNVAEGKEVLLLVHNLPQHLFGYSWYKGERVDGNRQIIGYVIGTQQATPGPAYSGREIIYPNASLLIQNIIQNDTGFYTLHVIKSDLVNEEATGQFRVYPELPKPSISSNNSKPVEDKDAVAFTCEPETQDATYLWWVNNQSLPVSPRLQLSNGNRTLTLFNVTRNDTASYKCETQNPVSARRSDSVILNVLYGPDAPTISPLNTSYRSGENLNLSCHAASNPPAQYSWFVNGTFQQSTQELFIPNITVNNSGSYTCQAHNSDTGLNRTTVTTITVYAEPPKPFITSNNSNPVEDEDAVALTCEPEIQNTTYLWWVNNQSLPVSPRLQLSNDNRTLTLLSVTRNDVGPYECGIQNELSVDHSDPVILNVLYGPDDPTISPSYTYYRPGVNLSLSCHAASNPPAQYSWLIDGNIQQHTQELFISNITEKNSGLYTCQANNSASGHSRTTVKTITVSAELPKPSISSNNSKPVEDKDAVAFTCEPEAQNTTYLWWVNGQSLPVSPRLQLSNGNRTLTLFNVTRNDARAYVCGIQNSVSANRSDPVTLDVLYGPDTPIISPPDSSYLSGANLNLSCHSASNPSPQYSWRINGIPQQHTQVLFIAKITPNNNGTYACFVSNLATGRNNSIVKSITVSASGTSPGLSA
Nature of the test: flow cytometry, serial dilution on LIM1215 cells (CEA-expressing), PE anti-human Fc detection. Here is the method: as §1

Data on four molecules can be found in patent publication US20220396635A1 (UNIVERSIT T STUTTGART, published 2022).

B1: scDb/scFv-Fc (1-3)+2, trivalent trispecific anti-EGFRxanti-HER3×anti-CD3 (other)
chain 1: EVQLVESGGGLVQPGGSLRLSCAASGFSLTNYGVHWVRQAPGKGLEWLGVIWSGGNTDYNTPFTSRFTISRDNSKNTLYLQMNSLRAEDTAVYYCARALTYYDYEFAYWGQGTTVTVSSGGGGSQAGLTQPPAVSVAPGQTASITCGRDNIGSRSVHWYQQKPGQAPVLVVYDDSDRPAGIPERFSGSNYENTATLTISRVEAGDEADYYCQVWGITSDHVVFGGGTKLTVLGGGGSGGGGSGGGGSQVQLQQSGPGLVKPSQTLSLTCAISGDSVSSNRAAWNWIRQSPSRGLEWLGRTYYRSKWYNDYAQSLKSRITINPDTPKNQFSLQLNSVTPEDTAVYYCARDGQLGLDALDIWGQGTMVTVSSGGGGSDIQLTQSPSFLSASVGDRVTITCRASQSIGTNIHWYQQKPGKAPKLLIKYASESISGVPSRFSGSGSGTEFTLTISSLQPEDFATYYCQQNNNWPTTFGAGTKLEIKRAAADKTHTCPPCPAPPVAGPSVFLFPPKPKDTLMISRTPEVTCVVVDVSHEDPEVKFNWYVDGVEVHNAKTKPREEQYNSTYRVVSVLTVLHQDWLNGKEYKCKVSNKGLPSSIEKTISKAKGQPREPQVCTLPPSRDELTKNQVSLSCAVKGFYPSDIAVEWESNGQPENNYKTTPPVLDSDGSFFLVSKLTVDKSRWQQGNVFSCSVMHEALHNHYTQKSLSLSPGK
chain 2: DIQMTQSPSSLSASVGDRVTITCRASQDIRNYLNWYQQKPGKAPKLLIYYTSRLHSGVPSRFSGSGSGTDFTFTISSLQPEDIATYYCQQGNTLPWTFGQGTKLEIKRGGGGSGGGGSGGGGSQVQLVQSGAEVKKPGSSVKVSCKASGGTFSGYTMNWVRQAPGQGLEWMGLINPYKGVSTYNGKFKDRVTITADKSTSTAYMELSSLRSEDTAVYYCARSGYYGDSDWYFDVWGQGTLVTVSSAAADKTHTCPPCPAPPVAGPSVFLFPPKPKDTLMISRTPEVTCVVVDVSHEDPEVKFNWYVDGVEVHNAKTKPREEQYNSTYRVVSVLTVLHQDWLNGKEYKCKVSNKGLPSSIEKTISKAKGQPREPQVYTLPPCRDELTKNQVSLWCLVKGFYPSDIAVEWESNGQPENNYKTTPPVLDSDGSFFLYSKLTVDKSRWQQGNVFSCSVMHEALHNHYTQKSLSLSPGK
notes: Trispecific antibody: 1 = HER3, 2 = CD3, 3 = EGFR; also called scDbhu225x3-43-Fc(hole)Δab + scFvhuU3-Fc(knob)Δab
On to B1, for which the EC50 with CD3 [1] came out at 0.6 nM.

B2: scDb/scFv-Fc (1-1)+2, trivalent bispecific anti-CEAxanti-CD3 (bispecific antibody)
chain 1: QVKLQQSGAELVRSGTSVKLSCTASGFNIKDSYMHWLRQGPEQGLEWIGWIDPENGDTEYAPKFQGKATFTTDTSSNTAYLQLSSLTSEDTAVYYCNEGTPTGPYYFDYWGQGTTVTVSSGGGGSDIELTQSPAIMSASPGEKVTITCSASSSVSYMHWFQQKPGTSPKLWIYSTSNLASGVPARFSGSGSGTSYSLTISRMEAEDAATYYCQQRSSYPLTFGAGTKLELKRGGGGSGGGGSGGGGSQVKLQQSGAELVRSGTSVKLSCTASGFNIKDSYMHWLRQGPEQGLEWIGWIDPENGDTEYAPKFQGKATFTTDTSSNTAYLQLSSLTSEDTAVYYCNEGTPTGPYYFDYWGQGTTVTVSSGGGGSDIELTQSPAIMSASPGEKVTITCSASSSVSYMHWFQQKPGTSPKLWIYSTSNLASGVPARFSGSGSGTSYSLTISRMEAEDAATYYCQQRSSYPLTFGAGTKLELKRAAADKTHTCPPCPAPPVAGPSVFLFPPKPKDTLMISRTPEVTCVVVDVSHEDPEVKFNWYVDGVEVHNAKTKPREEQYNSTYRVVSVLTVLHQDWLNGKEYKCKVSNKGLPSSIEKTISKAKGQPREPQVCTLPPSRDELTKNQVSLSCAVKGFYPSDIAVEWESNGQPENNYKTTPPVLDSDGSFFLVSKLTVDKSRWQQGNVFSCSVMHEALHNHYTQKSLSLSPGK
chain 2: B1 chain 2
notes: also called scDbCEAxCEA-Fc(hole)Δab + scFvhuU3-Fc(knob)Δab
Take B2: the values for the EC50 in the test with CD3 [2] and with CEA were 2.8 nM and 2.4 nM, respectively.

B3: scDb/Fab-Fc (1-3)+2, trivalent trispecific anti-EGFRxanti-HER3×anti-CD3 (other)
chain: B1 chain 1
heavy: QVQLVQSGAEVKKPGSSVKVSCKASGGTFSGYTMNWVRQAPGQGLEWMGLINPYKGVSTYNGKFKDRVTITADKSTSTAYMELSSLRSEDTAVYYCARSGYYGDSDWYFDVWGQGTLVTVSSASTKGPSVFPLAPSSKSTSGGTAALGCLVKDYFPEPVTVSWNSGALTSGVHTFPAVLQSSGLYSLSSVVTVPSSSLGTQTYICNVNHKPSNTKVDKKVEPKSCDKTHTCPPCPAPPVAGPSVFLFPPKPKDTLMISRTPEVTCVVVDVSHEDPEVKFNWYVDGVEVHNAKTKPREEQYNSTYRVVSVLTVLHQDWLNGKEYKCKVSNKGLPSSIEKTISKAKGQPREPQVYTLPPCRDELTKNQVSLWCLVKGFYPSDIAVEWESNGQPENNYKTTPPVLDSDGSFFLYSKLTVDKSRWQQGNVFSCSVMHEALHNHYTQKSLSLSPGK
light: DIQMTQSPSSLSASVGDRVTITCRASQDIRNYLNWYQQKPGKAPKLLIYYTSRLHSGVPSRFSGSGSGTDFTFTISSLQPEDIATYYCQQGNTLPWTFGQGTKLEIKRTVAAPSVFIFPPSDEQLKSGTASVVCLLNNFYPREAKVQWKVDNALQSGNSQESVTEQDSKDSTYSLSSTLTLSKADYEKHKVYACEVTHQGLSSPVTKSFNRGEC
notes: Trispecific antibody: 1 = HER3, 2 = CD3, 3 = EGFR; also called scDbhu225x3-43-Fc(hole)Δab + FdhuU3-Fc(knob)Δab + VLhuU3-CLK
Turning to B3, the midpoint of the response in the test with CD3 [1], the EC50, lay at 0.8 nM.

B4: scDb/Fab-Fc (1-1)+2, trivalent bispecific anti-CEAxanti-CD3 (bispecific antibody)
chain: B2 chain 1
heavy: B3 heavy
light: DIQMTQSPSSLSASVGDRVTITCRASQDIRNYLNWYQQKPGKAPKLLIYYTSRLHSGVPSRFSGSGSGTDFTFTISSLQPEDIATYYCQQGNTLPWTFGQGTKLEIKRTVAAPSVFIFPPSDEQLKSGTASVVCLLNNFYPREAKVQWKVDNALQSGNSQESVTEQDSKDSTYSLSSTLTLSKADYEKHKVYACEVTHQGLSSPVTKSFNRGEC
notes: also called scDbCEAxCEA-Fc(hole)Δab + FdhuU3-Fc(knob)Δab + VLhuU3-CLK
Take B4: the EC50 came to 0.8 nM with CD3 [2] and 8.5 nM in the test with CEA.
